From the supplement of paper PMC10567573

B1: FAM46C (parent)
chain: FDHLQNRLIATKNPEEIRGGGLLK

Variants of: B1
Experiment: protein stability index of a GFP-peptide fusion (GPS, HEK-293T) (PSI 1-6); higher = more stable
Details: c terminus: a fixed tail appended
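Also: lentivirally expressed fusions sorted by FACS into six bins by GFP to DsRed ratio, PSI derived from sequencing read proportions per bin multiplied by bin number.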

Compared with FQHLQNRLIATKNPEEIRGGGLLK [D2Q], FTHLQNRLIATKNPEEIRGGGLLK [D2T] is lower in protein stability index: 4.32 for the first, 1.93 for the second.

Going from FLHLQNRLIATKNPEEIRGGGLLK [D2L] to FIHLQNRLIATKNPEEIRGGGLLK [D2I], the protein stability index falls from 2.33 to 1.04.

First: FMHLQNRLIATKNPEEIRGGGLLK [D2M]
Second: FDHLQNRLIATVNPEEIRGGGLLK [K12V]
The protein stability index of the first is lower: 2.17 for the first, 4.38 for the second.

Compared with FDHLQNRLIATQNPEEIRGGGLLK [K12Q], FDHLQNRLIATTNPEEIRGGGLLK [K12T] is higher in protein stability index: 3.61 for the first, 3.75 for the second.

First: FDHLQNRLIATENPEEIRGGGLLK [K12E]
Second: FDHLQNRLIATCNPEEIRGGGLLK [K12C]
The protein stability index of the first is higher: 3.71 for the first, 2.9 for the second.

Going from FDHLQNRLIATANPEEIRGGGLLK [K12A] to FDHLQNRLIATGNPEEIRGGGLLK [K12G], the protein stability index rises from 3.68 to 4.

Compared with FDHLQNRLIATYNPEEIRGGGLLK [K12Y], FDHLQNRLIATMNPEEIRGGGLLK [K12M] is higher in protein stability index: 3.24 for the first, 3.37 for the second.

Compared with FDHLQNRLIATNNPEEIRGGGLLK [K12N], FDHLQNRLIATFNPEEIRGGGLLK [K12F] is lower in protein stability index: 3.82 for the first, 2.59 for the second.

Going from FDHLQNRLIATHNPEEIRGGGLLK [K12H] to FDHLQNRLIATPNPEEIRGGGLLK [K12P], the protein stability index rises from 3.1 to 4.24.

Going from FDHLQNRLIATLNPEEIRGGGLLK [K12L] to FDHLQNRWIATKNPEEIRGGGLLK [L8W], the protein stability index rises from 2.65 to 4.

Going from FDHLQNRGIATKNPEEIRGGGLLK [L8G] to FDHLQNRAIATKNPEEIRGGGLLK [L8A], the protein stability index rises from 4.39 to 4.43.

First: FDHLQNRYIATKNPEEIRGGGLLK [L8Y]
Second: FDHLQNRMIATKNPEEIRGGGLLK [L8M]
The protein stability index of the first is higher: 4.4 for the first, 3.99 for the second.

First: FDHLQNRKIATKNPEEIRGGGLLK [L8K]
Second: FDHLQNRCIATKNPEEIRGGGLLK [L8C]
The protein stability index of the first is higher: 4.16 for the first, 4.03 for the second.

Compared with FDHLQNRIIATKNPEEIRGGGLLK [L8I], FDHLQNRPIATKNPEEIRGGGLLK [L8P] is higher in protein stability index: 3.66 for the first, 4.72 for the second.

First: FDHLQNRTIATKNPEEIRGGGLLK [L8T]
Second: FDHLQNRRIATKNPEEIRGGGLLK [L8R]
The protein stability index of the first is higher: 4.34 for the first, 3.72 for the second.

First: FDHLQNRSIATKNPEEIRGGGLLK [L8S]
Second: FDHLQNRNIATKNPEEIRGGGLLK [L8N]
The protein stability index of the first is higher: 4.62 for the first, 4.45 for the second.

First: FDHLQNRDIATKNPEEIRGGGLLK [L8D]
Second: FDHLQNREIATKNPEEIRGGGLLK [L8E]
The protein stability index of the first is higher: 5.05 for the first, 5.03 for the second.

First: FDHLQNRQIATKNPEEIRGGGLLK [L8Q]
Second: FDHLQNRVIATKNPEEIRGGGLLK [L8V]
The protein stability index of the first is higher: 5.05 for the first, 2.97 for the second.

Compared with FDHLQNRFIATKNPEEIRGGGLLK [L8F], FDHLQNRLIATKWPEEIRGGGLLK [N13W] is lower in protein stability index: 3.23 for the first, 3.14 for the second.

Going from FDHLQNRLIATKIPEEIRGGGLLK [N13I] to FDHLQNRLIATKFPEEIRGGGLLK [N13F], the protein stability index falls from 3.47 to 2.96.

Going from FDHLQNRLIATKGPEEIRGGGLLK [N13G] to FDHLQNRLIATKCPEEIRGGGLLK [N13C], the protein stability index rises from 2.86 to 3.15.

Compared with FDHLQNRLIATKSPEEIRGGGLLK [N13S], FDHLQNRLIATKKPEEIRGGGLLK [N13K] is higher in protein stability index: 3.62 for the first, 4.03 for the second.

Going from FDHLQNRLIATKTPEEIRGGGLLK [N13T] to FDHLQNRLIATKMPEEIRGGGLLK [N13M], the protein stability index falls from 3.64 to 2.81.

Compared with FDHLQNRLIATKQPEEIRGGGLLK [N13Q], FDHLQNRLIATKHPEEIRGGGLLK [N13H] is lower in protein stability index: 3.86 for the first, 2.77 for the second.

FDHLQNRLIATKEPEEIRGGGLLK [N13E] and FDHLQQRLIATKNPEEIRGGGLLK [N6Q] are the same in protein stability index: 4.1 for the first, 4.1 for the second.

First: FDHLQFRLIATKNPEEIRGGGLLK [N6F]
Second: FDHLQIRLIATKNPEEIRGGGLLK [N6I]
The protein stability index of the first is lower: 2.38 for the first, 2.56 for the second.

Going from FDHLQYRLIATKNPEEIRGGGLLK [N6Y] to FDHLQVRLIATKNPEEIRGGGLLK [N6V], the protein stability index falls from 2.95 to 2.55.

Going from FDHLQARLIATKNPEEIRGGGLLK [N6A] to FDHLQPRLIATKNPEEIRGGGLLK [N6P], the protein stability index rises from 3.58 to 4.46.

First: FDHLQTRLIATKNPEEIRGGGLLK [N6T]
Second: FDHLQKRLIATKNPEEIRGGGLLK [N6K]
The protein stability index of the first is lower: 1.91 for the first, 3.81 for the second.

Going from FDHLQERLIATKNPEEIRGGGLLK [N6E] to FDHLQSRLIATKNPEEIRGGGLLK [N6S], the protein stability index falls from 3.87 to 3.31.

Compared with FDHLQCRLIATKNPEEIRGGGLLK [N6C], FDHLQMRLIATKNPEEIRGGGLLK [N6M] is higher in protein stability index: 1.88 for the first, 3.32 for the second.

First: FDHLQGRLIATKNPEEIRGGGLLK [N6G]
Second: FDHLQNRLIAAKNPEEIRGGGLLK [T11A]
The protein stability index of the first is lower: 3.03 for the first, 3.55 for the second.

First: FDHLQNRLIAVKNPEEIRGGGLLK [T11V]
Second: FDHLQNRLIAYKNPEEIRGGGLLK [T11Y]
The protein stability index of the first is higher: 3.74 for the first, 3.31 for the second.

Compared with FDHLQNRLIANKNPEEIRGGGLLK [T11N], FDHLQNRLIAPKNPEEIRGGGLLK [T11P] is lower in protein stability index: 4.01 for the first, 3.63 for the second.

Compared with FDHLQNRLIALKNPEEIRGGGLLK [T11L], FDHLQNRLIASKNPEEIRGGGLLK [T11S] is lower in protein stability index: 4.29 for the first, 3.56 for the second.

Going from FDHLQNRLIAEKNPEEIRGGGLLK [T11E] to FDHLQNRLIAMKNPEEIRGGGLLK [T11M], the protein stability index falls from 4.71 to 3.7.

First: FDHLQNRLIADKNPEEIRGGGLLK [T11D]
Second: FDHLQNRLIAWKNPEEIRGGGLLK [T11W]
The protein stability index of the first is lower: 3.75 for the first, 3.98 for the second.

Compared with FDHLQNRLIARKNPEEIRGGGLLK [T11R], FDHLQNRLIAQKNPEEIRGGGLLK [T11Q] is higher in protein stability index: 3.97 for the first, 4.2 for the second.

First: FDHLQNRLIACKNPEEIRGGGLLK [T11C]
Second: FDHLQNRLIAFKNPEEIRGGGLLK [T11F]
The protein stability index of the first is lower: 3.41 for the first, 3.73 for the second.

Going from FDHLCNRLIATKNPEEIRGGGLLK [Q5C] to FDHLVNRLIATKNPEEIRGGGLLK [Q5V], the protein stability index falls from 3.96 to 3.33.

Going from FDHLNNRLIATKNPEEIRGGGLLK [Q5N] to FDHLHNRLIATKNPEEIRGGGLLK [Q5H], the protein stability index rises from 3.44 to 3.87.

Going from FDHLWNRLIATKNPEEIRGGGLLK [Q5W] to FDHLANRLIATKNPEEIRGGGLLK [Q5A], the protein stability index rises from 1.08 to 4.57.

First: FDHLMNRLIATKNPEEIRGGGLLK [Q5M]
Second: FDHLFNRLIATKNPEEIRGGGLLK [Q5F]
The protein stability index of the first is lower: 2.92 for the first, 3.27 for the second.

Going from FDHLINRLIATKNPEEIRGGGLLK [Q5I] to FDHLPNRLIATKNPEEIRGGGLLK [Q5P], the protein stability index rises from 3.17 to 3.63.

Compared with FDHLLNRLIATKNPEEIRGGGLLK [Q5L], FDHLTNRLIATKNPEEIRGGGLLK [Q5T] is higher in protein stability index: 2.17 for the first, 3.99 for the second.

Going from FDHLKNRLIATKNPEEIRGGGLLK [Q5K] to FDHLENRLIATKNPEEIRGGGLLK [Q5E], the protein stability index rises from 3.67 to 3.82.

Going from FDHLSNRLIATKNPEEIRGGGLLK [Q5S] to FDHLRNRLIATKNPEEIRGGGLLK [Q5R], the protein stability index falls from 4 to 2.86.
